Source: publication PMC4663276

Columns and labels:
[1] = target: TirM-ΔVBS1 (TarP VBD deleted for VBS1, Thr714-Arg832, fused to TirM) (Chlamydia caviae strain GPIC)
[2] = target: TirM-TarP FL (full-length C. caviae GPIC TarP fused to TirM) (Chlamydia caviae strain GPIC)

Substance: vinculin (natural protein)
- frequency of vinculin recruitment to Δtir EPEC-clustered TirM fusion at the plasma membrane of Cos7 cells (immunofluorescence), decrease relative to WT VBD [1]: 1.6 fold
- frequency of vinculin recruitment to Δtir EPEC-clustered TirM fusion at the plasma membrane of Cos7 cells (immunofluorescence), TarP-FL relative to TirM-TarP1-714 [2]: 3 fold
